Reference: the supplement of paper PMC9170038

tested on: MS2 coat protein; experiment: apparent KD of MS2 coat protein; higher = weaker reporter binding; settings: Eterna round: R107; input ligand: theophylline 20 uM
Method in brief: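 Designed RNA switches, transcribed on-chip from Illumina sequencing clusters, were titrated with SNAP-549-labelled MS2 coat protein from 0.7 or 1.5 nM to 3 µM in twofold steps. The solution was 100 mM Tris-HCl pH 7.5, 80 mM KCl, 4 mM MgCl2, with constant ligand or without it. Apparent KD is the median over each design's normalised cluster binding-curve fits.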

Sequence	apparent KD of MS2 coat protein [nM]
AUCCUCUAGAAUGAUACCAGACCAAACAUGAGGAUCACCCAUGUAUCAGGCAAUUGUUACGUCCCUUGGCAGCAUGUAUGCCGAC [Theo B SS t3]	31.5
CGUCGAGACUGAAGGAGCGAGAUAACAACAUUGGGUCUCAACACAUGAGGAUCACCCAUGUCUCAGGUAGGUCGCGGUGUCACCG [Exclusion Arginine B GF21]	211
GGACUAACCAGAAGGAGCGGCGCGCAGAAACUGCUAAUUCCUCCGCACGAGGAUCACCCGUGUCAGGUAGGUCGCUGGUUAGUCG [ArgBX 28]	12.4
AAAGAUCGGAAACGAUCGGCGGCUUGGGCGCGAGGACCGGUACGGCCGCCACUCGGGCAACAUGAGGAUCACCCAUGUUCCUCAU [ETA NP+V+V2 #17]	245
UGCAAAUGAUGAGAUACCAGUUCAGUUAAAUACAUGAGGAUCACCCAUGUCAGGGAACUCAACCCUUGGCAGCUCGAUGCACUCA [theeternabot_sameState_MS2_Theo_B_43]	56.7
ACAUGAGCAUCAGCCUUGUAGGAACUAGAUACCAGCCCAACAUGAGGCCCUUGGCAGCUGACAACAUGAGGAUCACCCAUGUCAC [Exclusion - Theophylline A #1]	36.3
UGUAACAUGAGGAUCACCCAUGUGAGUGAUACCAGAUAAGUAGUAGUCCCUUGGCAGCAUAUUGGGCGAGUGUAUAGUCUAUGCG [Same State - Theophylline A (Freestyle 9)]	207
UAAUCUGGUCUUCGAUAGGUGAUCCUCAAACGAGGACCGGUACGGCCGCCACUCGAUAACAUGAGGAUCACCCAUGUACGAGUGA [|T'-M'-Trp-Ms2|_Design16b]	155

same assay, conditions: Eterna round: R107; input ligand: theophylline 2 mM

Sequence	apparent KD of MS2 coat protein [nM]
GUGGACAUGAGGAUCACCCAUGUAAGUCGGCGAGGACCGGUACGGCCGCCACUCGUGUUCUGUCUCAGCUCAAACGUAGCCGGAA [theeternabot_sameState_MS2_Trp_A_13]	39.2
UGUAUGGACUGAAGGAGCGCCUCAAAAUAACUUGAGGAUCACCCAAGUAAGGCGAAAGCCGGGCAGGUAGGUCGCAGUCCAUACU [ArgBX 3]	15.2
GGCGACAUGAGGAUCACCCAUGUGACACCUCGAGGACCGGUACGGCCGCCACUCGUAACCUGCACUAUAGCUACCACGAUUAGCC [theeternabot_sameState_MS2_Trp_A_44]	233
CAAUAUAUAUGAAGGAGCGUCGAAAAUGGGUAAACAUGAGGAUCACCCAUGUAAAGGGAACGACAGGUAGGUCGCAUAUGUAUUG [AstromonsSSArgB#9]	261
CUGCCAUGCAGGGAUACCAGUGCGUUCAGAACAUGAGGAUCACCCAUGUCGUCUGCCGAUCACCCUUGGCAGCUCUGCAUGGCAG [#05 Same State - Theophylline B]	9.73
GGUUACUCUACGGCCGCCACUGGGCAUGUAAAUAACAUGAGGAUCACCCAUGUGGAUUAAAAUUACAGGACCGGGUAGUGUAACC [Tryptophan B 21]	345
CGUCGAGACUGAAGGAGCGAGAUAACAACAUUGGGUCUCAACACAUGAGGAUCACCCAUGUCUCAGGUAGGUCGCGGUGUCACCG [Exclusion Arginine B GF21]	150
GGACUAACCAGAAGGAGCGGCGCGCAGAAACUGCUAAUUCCUCCGCACGAGGAUCACCCGUGUCAGGUAGGUCGCUGGUUAGUCG [ArgBX 28]	13.4
AAAGAUCGGAAACGAUCGGCGGCUUGGGCGCGAGGACCGGUACGGCCGCCACUCGGGCAACAUGAGGAUCACCCAUGUUCCUCAU [ETA NP+V+V2 #17]	180
UAAUCUGGUCUUCGAUAGGUGAUCCUCAAACGAGGACCGGUACGGCCGCCACUCGAUAACAUGAGGAUCACCCAUGUACGAGUGA [|T'-M'-Trp-Ms2|_Design16b]	205

same assay, conditions: Eterna round: R107; input ligand: tryptophan 2.4 mM

Sequence	apparent KD of MS2 coat protein [nM]
UGUAUGGACUGAAGGAGCGCCUCAAAAUAACUUGAGGAUCACCCAAGUAAGGCGAAAGCCGGGCAGGUAGGUCGCAGUCCAUACU [ArgBX 3]	12.4
UGUAACAUGAGGAUCACCCAUGUGAGUGAUACCAGACUAGUGUUGGUCCCUUGGCAGCACGCUGGGCGAGUGUGUAGUCUAUGCG [Same State - Theophylline A (Freestyle 17)]	80.5
CAAUAUAUAUGAAGGAGCGUCGAAAAUGGGUAAACAUGAGGAUCACCCAUGUAAAGGGAACGACAGGUAGGUCGCAUAUGUAUUG [AstromonsSSArgB#9]	190
CUGCCAUGCAGGGAUACCAGUGCGUUCAGAACAUGAGGAUCACCCAUGUCGUCUGCCGAUCACCCUUGGCAGCUCUGCAUGGCAG [#05 Same State - Theophylline B]	9.91
GGUUACUCUACGGCCGCCACUGGGCAUGUAAAUAACAUGAGGAUCACCCAUGUGGAUUAAAAUUACAGGACCGGGUAGUGUAACC [Tryptophan B 21]	36.1
AACCGAGGCUAUCCUCUACGACUAUGUGAUACCAGAAUAAUUUUAUUCCCUUGGCAGCAUGACAUGAGGAUCACCCAUGUCUCUU [SSTheo A #9]	34
AUCCUCUAGAAUGAUACCAGACCAAACAUGAGGAUCACCCAUGUAUCAGGCAAUUGUUACGUCCCUUGGCAGCAUGUAUGCCGAC [Theo B SS t3]	20.2
CGUCGAGACUGAAGGAGCGAGAUAACAACAUUGGGUCUCAACACAUGAGGAUCACCCAUGUCUCAGGUAGGUCGCGGUGUCACCG [Exclusion Arginine B GF21]	132
GGACUAACCAGAAGGAGCGGCGCGCAGAAACUGCUAAUUCCUCCGCACGAGGAUCACCCGUGUCAGGUAGGUCGCUGGUUAGUCG [ArgBX 28]	11
AAAGAUCGGAAACGAUCGGCGGCUUGGGCGCGAGGACCGGUACGGCCGCCACUCGGGCAACAUGAGGAUCACCCAUGUUCCUCAU [ETA NP+V+V2 #17]	189
UGCAAAUGAUGAGAUACCAGUUCAGUUAAAUACAUGAGGAUCACCCAUGUCAGGGAACUCAACCCUUGGCAGCUCGAUGCACUCA [theeternabot_sameState_MS2_Theo_B_43]	59
ACAUGAGCAUCAGCCUUGUAGGAACUAGAUACCAGCCCAACAUGAGGCCCUUGGCAGCUGACAACAUGAGGAUCACCCAUGUCAC [Exclusion - Theophylline A #1]	38.4
UGUAACAUGAGGAUCACCCAUGUGAGUGAUACCAGAUAAGUAGUAGUCCCUUGGCAGCAUAUUGGGCGAGUGUAUAGUCUAUGCG [Same State - Theophylline A (Freestyle 9)]	152
UAAUCUGGUCUUCGAUAGGUGAUCCUCAAACGAGGACCGGUACGGCCGCCACUCGAUAACAUGAGGAUCACCCAUGUACGAGUGA [|T'-M'-Trp-Ms2|_Design16b]	119
